Experimental data as given in patent US20200114017A1 (BIONOMICS, published 2020).

Experiments:
[1] = molecular target: T1, human LGR5 (leucine-rich repeat containing G-protein-coupled receptor 5) (human, UniProt O75473 22-561); experiment: cell-based or functional assay
T1 sequence: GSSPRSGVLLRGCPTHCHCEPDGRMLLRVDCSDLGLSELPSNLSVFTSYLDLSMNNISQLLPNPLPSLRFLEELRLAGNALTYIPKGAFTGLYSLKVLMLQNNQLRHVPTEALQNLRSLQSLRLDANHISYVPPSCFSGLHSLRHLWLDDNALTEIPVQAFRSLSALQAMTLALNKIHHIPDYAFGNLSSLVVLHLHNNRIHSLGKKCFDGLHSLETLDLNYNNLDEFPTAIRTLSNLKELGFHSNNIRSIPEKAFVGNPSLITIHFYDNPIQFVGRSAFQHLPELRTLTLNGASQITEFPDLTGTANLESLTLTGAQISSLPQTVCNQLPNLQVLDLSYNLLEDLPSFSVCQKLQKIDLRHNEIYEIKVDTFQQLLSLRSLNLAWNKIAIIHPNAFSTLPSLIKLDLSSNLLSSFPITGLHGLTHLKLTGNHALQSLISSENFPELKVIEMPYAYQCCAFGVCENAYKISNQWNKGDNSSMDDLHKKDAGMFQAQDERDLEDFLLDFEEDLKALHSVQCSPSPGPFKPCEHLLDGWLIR

[2] = molecular target: T1, human LGR5 (leucine-rich repeat …); experiment: FACS on CHO cells expressing recombinant LGR5

EC50 [2]	Binder	IC50 (nM) of cell viability, MTS assay, primary antibody + secondary ADC (NL-MMAF) [1]
	18G7Ch (antibody, human IgG1, kappa, V domains shown) VH: QVQLQQSGAELVKPGASVKISCKATGYTFSGYWIEWVKQRPGHGLEWIGEILPGSDSTNYNEKFKGKATFTADTSSNTVYMQFSSLTSEDSAVYYCARSGYYGSSQYWGQGTTLTVSS VL: NIVLTQSPASLAVSLGQRATISCRASESVDSYGNSFMHWYQQKPGQPPKLLIYLTSNLESGVPARFSGSGSRTDFTLTIDPVEADDAATYYCQQNNEDPRTFGGGTKLEIKR	0.115 nM
< 10 nM	18G7H6A1 (antibody, human IgG1, kappa, V domains shown) VH: EVQLVQSGAEVKKPGESLRISCKGSGYSFTAYWIEWVRQAPGKGLEWIGEILPGSDSTNYNEKFKGHVTISADKSISTAYLQWSSLKASDTAVYYCARSGYYGSSQYWGQGTLVTVSS VL: DIVLTQSPASLAVSPGQRATITCRASESVDSYGNSFMHWYQQKPGQPPKLLIYLTSNLESGVPDRFSGSGSGTDFTLTINPVEANDAATYYCQQNAEDPRTFGGGTKLEIKR	
